Earlier results, collected in article PMC6289173.

Biological target: endophilin (UniProt O35179)

- Kd: 10 µM
Substance: endophilin (from UniProt O35179)
